Columns and labels:
Experiment in all cases: SPR
[1] = biological target: fHbp V1.1 Gln103 to Ala (N. meningitidis)
[2] = biological target: fHbp V2.21 Val (at V1 Ile196) to Ala (N. meningitidis)
[3] = biological target: fHbp V2.21 His (at V1 His203) to Ala (N. meningitidis)
[4] = biological target: fHbp V2.21 Leu (at V1 Ile199) to Ala (N. meningitidis)
[5] = biological target: fHbp V2.21 Phe (at V1 Phe194) to Ala (N. meningitidis)
[6] = biological target: fHbp V3.28 Thr (at V1 Ser286) to Ala (N. meningitidis)

CFH67, CCP domains 6 and 7 of complement factor H, sequence (P08603 321-443): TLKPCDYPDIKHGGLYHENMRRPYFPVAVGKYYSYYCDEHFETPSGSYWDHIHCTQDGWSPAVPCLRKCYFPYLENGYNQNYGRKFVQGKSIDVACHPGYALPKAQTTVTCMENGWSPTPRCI

Substance | Kd [1] [nM] | Kd [2] [nM] | Kd [3] [nM] | Kd [4] [nM] | Kd [5] [nM] | Kd [6] [nM]
CFH67, CCP domains 6 and 7 of complement factor H (from UniProt P08603 321-443) (domain or fragment) | 7.03 | 40 |  |  |  | 
CFHR3_(12), the first two (N-terminal) CCP domains of complement factor H-related 3 (from UniProt Q02985 19-330) (domain or fragment) |  |  | 3.81 | 11.2 | 1.08 | 33.1
